This note sets out measurements from US20180118785A1 (University of Pennsylvania, published 2018).

Bridges are numbered along the chain shown (N, C = ends). [ ]: non-standard residue; d: D form. Bpa = N[C@@H](Cc1ccc(C(=O)c2ccccc2)cc1)C(=O)O; 1Nal = N[C@@H](Cc1cccc2ccccc12)C(=O)O; 2Nal = N[C@@H](Cc1ccc2ccccc2c1)C(=O)O; Igl = N[C@H](C(=O)O)C1Cc2ccccc2C1

To fix the notation:
B1: Ac-4IgI,9A (peptide)
peptide: Ac-ICV[Igl]QDWGAHRCT-NH2
modifications: disulfide 2-12 (inferred)
B2: Ac-4(2-Nal),9A-OH (peptide)
peptide: Ac-ICV[2Nal]QDWGAHRCT-OH
modifications: disulfide 2-12 (inferred)
B3: Ac-4IgI,9A-OH (peptide)
peptide: Ac-ICV[Igl]QDWGAHRCT-OH
modifications: disulfide 2-12 (inferred)
B4: Ac-4Dht,9A-OH (peptide)
peptide: ICVXQDWGAHRCT
modifications: N-terminal acetyl; dihydrotryptophan (Dht) at position 4; free C-terminal acid (COOH); disulfide bond between the two Cys residues
B5: Ac-4(2-Nal),9A (peptide)
peptide: Ac-ICV[2Nal]QDWGAHRCT-NH2
modifications: disulfide 2-12 (inferred)
B6: +G,4W,9A + AN-OH (peptide)
peptide: H-GICVWQDWGAHRCTAN-OH
modifications: disulfide 3-13
SMILES: CC[C@H](C)[C@H](NC(=O)CN)C(=O)N[C@H]1CSSC[C@@H](C(=O)N[C@H](C(=O)N[C@@H](C)C(=O)N[C@@H](CC(N)=O)C(=O)O)[C@@H](C)O)NC(=O)[C@H](CCCNC(=N)N)NC(=O)[C@H](Cc2c[nH]cn2)NC(=O)[C@H](C)NC(=O)CNC(=O)[C@H](Cc2c[nH]c3ccccc23)NC(=O)[C@H](CC(=O)O)NC(=O)[C@H](CCC(N)=O)NC(=O)[C@H](Cc2c[nH]c3ccccc23)NC(=O)[C@H](C(C)C)NC1=O
B7: Ac-4(1-Nal),9A-OH (peptide)
peptide: Ac-ICV[1Nal]QDWGAHRCT-OH
modifications: disulfide 2-12 (inferred)
B8: Ac-4(Bpa),9A-OH (peptide)
peptide: Ac-ICV[Bpa]QDWGAHRCT-OH
modifications: disulfide 2-12 (inferred)
B9: Ac-4Y,9A (peptide)
peptide: Ac-ICVYQDWGAHRCT-NH2
modifications: disulfide 2-12
SMILES: CC[C@H](C)[C@H](NC(C)=O)C(=O)N[C@H]1CSSC[C@@H](C(=O)N[C@H](C(N)=O)[C@@H](C)O)NC(=O)[C@H](CCCNC(=N)N)NC(=O)[C@H](Cc2c[nH]cn2)NC(=O)[C@H](C)NC(=O)CNC(=O)[C@H](Cc2c[nH]c3ccccc23)NC(=O)[C@H](CC(=O)O)NC(=O)[C@H](CCC(N)=O)NC(=O)[C@H](Cc2ccc(O)cc2)NC(=O)[C@H](C(C)C)NC1=O

In one assay the target is complement component C3 (human, in normal human plasma) (human, UniProt P01024 23-1663). The assay is described as follows: cell-based or functional assay.
As to B1, the “Activity over Compstatin (inhibition of C3b/iC3b deposition on immunocomplexes in human plasma, compared by IC50)” value amounted to 55 fold over Compstatin. For B2, the “Activity over Compstatin (inhibition of C3b/iC3b deposition on immunocomplexes in human plasma, compared by IC50)” value stood at 39 fold over Compstatin. With B3, the “Activity over Compstatin (inhibition of C3b/iC3b deposition on immunocomplexes in human plasma, compared by IC50)” value came to 55 fold over Compstatin.

Take B4: the “Activity over Compstatin (inhibition of C3b/iC3b deposition on immunocomplexes in human plasma, compared by IC50)” value was determined as 9 fold over Compstatin. B5: the “Activity over Compstatin (inhibition of C3b/iC3b deposition on immunocomplexes in human plasma, compared by IC50)” value is 66 fold over Compstatin.

For B6, the “Activity over Compstatin (inhibition of C3b/iC3b deposition on immunocomplexes in human plasma, compared by IC50)” value came to 38 fold over Compstatin.

On to B7, for which the “Activity over Compstatin (inhibition of C3b/iC3b deposition on immunocomplexes in human plasma, compared by IC50)” value worked out at 23 fold over Compstatin.

For the molecule B8, the “Activity over Compstatin (inhibition of C3b/iC3b deposition on immunocomplexes in human plasma, compared by IC50)” value was 55 fold over Compstatin.

For the molecule B9, the “Activity over Compstatin (inhibition of C3b/iC3b deposition on immunocomplexes in human plasma, compared by IC50)” value is 19 fold over Compstatin.

For a further assay, the target named is complement component C3 (human, in normal human plasma) (human) (UniProt P01024). The assay is described as follows: cell-based or functional assay.
Molecule “Compstatin analog with Ile substituted for Thr at position 13 (peptide)” had a complement-inhibitory activity compared with Compstatin (fold over Compstatin) of 21.
